# Experimental data from US20210079063A1 (UNIVERSITY OF CHICAGO, published 2021).
# T1: Abl SH2 (UniProt P00519 127-217, limits assumed)
# T1 construct: domain: SH2; Target protein of the library selection
# T1 sequence (looked up): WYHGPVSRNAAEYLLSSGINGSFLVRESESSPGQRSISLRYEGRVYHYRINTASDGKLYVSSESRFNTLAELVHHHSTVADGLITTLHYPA
# B1: AblSH2MbL04 (designed binder)
# therMonobody (FN3 domain): SSSSVPQIASIASGPETITVKWYYYSIDVYYYITYWSSSSQKVTINVGPQTSYTIKHLKPGVTYYIQIVPYSFYSDSDYGYYPSDIISATPSSS
# notes: loop-only library clone selected on Abl SH2
# B2: MBPMbS12 (designed binder)
# therMonobody (FN3 domain): SSSSVPQIASIASGPETITVKWYDTNASYYYISYWSGQSETVAIEVGNVTSYTIKHLKPGVTYYIQIVPYYPGYYPVHYVPSDIISATPSSS
# notes: side-and-loop library clone selected on MBP
# B3: AblSH2MbS07 (designed binder)
# therMonobody (FN3 domain): SSSSVPQIASIASGPETITVKWYDTNASYYYIYYWSSYPVTEEVEIKVGNVTSYTIKHLKPGVTYYIQIVPGYYSYPYYLSPSDIISATPSSS
# notes: side-and-loop library clone selected on Abl SH2
# B4: SUMOMbL14 (designed binder)
# therMonobody (FN3 domain): SSSSVPQIASIASGPETITVKWYDTNASYYYITYWSSSSQKVTINVGSPISYTIKHLKPGVTYYIQIVPYYTIGPDEYYYIPSDIISATPSSS
# notes: loop-only library clone selected on ySUMO
# B5: SUMOMbS34 (designed binder)
# therMonobody (FN3 domain): SSSSVPQIASIASGPETITVKWYDTNASYYYIYYWSGPYYYKKVTITVGNVTSYTIKHLKPGVTYYIQIVPYHVHDWGYYYYPSDIISATPSSS
# notes: side-and-loop library clone selected on ySUMO
# B6: MBPMbS01 (designed binder)
# therMonobody (FN3 domain): SSSSVPQIASIASGPETITVKWYDTNASYYYISYWSADYDSEAVAIAVGNVTSYTIKHLKPGVTYYIQIVPYKANSYYPGYGYPSDIISATPSSS
# notes: as for B2
# B7: SUMOMbS20 (designed binder)
# therMonobody (FN3 domain): SSSSVPQIASIAVGPETITVKWYDTNASYYYIYYWSKHPKKVKIEVGNVTSYTIKHLKPGVTYYIQIVPFISYYDLYYSGDPSDIISATPSSS
# notes: as for B5
# B8: MBPMbL08 (designed binder)
# therMonobody (FN3 domain): SSSSVPQIASIASGPETITVKWYWSSYYWSPFYYYITYWSSSSQKVTINVGNVTSYTIKHLKPGVTYYIQIVPYWYQYFPRYGYPSDIISATPSSS
# notes: loop-only library clone selected on MBP
# B9: SUMOMbS08 (designed binder)
# therMonobody (FN3 domain): SSSSVPQIASIASGPETITVKWYDTNASYYYIYYWSLQYYREAVKIEVGNVTSYTIKHLKPGVTYYIQIVPFEEFGFGWYSGDPSDIISATPSSS
# notes: as for B5
# B10: AblSH2MbS02 (designed binder)
# therMonobody (FN3 domain): SSSSVPQIASIASGPETITVKWYDTNASFYYIYYWSTYPVTEEVEIKVGNVTSYTIKHLKPGVTYYIQIVPQYWYLGAGYPSDIISATPSSS
# notes: as for B3
# B11: MBPMbS09 (designed binder)
# therMonobody (FN3 domain): SSSSVPQIASIASGPETITVKWYDTNASYYYISYWSYSTATVAIAVGNVTSYTIKHLKPGVTYYIQIVPYYGYRPYPSYGYPSDIISATPSSS
# notes: as for B2
# B12: MBPMbL17 (designed binder)
# therMonobody (FN3 domain): SSSSVPQIASIAVGPETITVKWYRIPHAYYYYITYWSSSSQKVTINVGNVTSYTIKHLKPGVTYYIQIVPYYPSPWYLSYGYPSDIISATPSSS
# notes: as for B8
# Key:
# Abl SH2 [1] = target: T1, Abl SH2; assay: yeast surface display: therMonobody on yeast, soluble target titrated 0-1000 nM, mean fluorescence, fit of the 1:1 binding model
# From the text: (§1) FIG. 6A-C. therMonobody library designs and generated clones. Amino acid sequences of therMonobodies generated from the loop-only library (a) and the side-and-loop library (b). The locations of diversified residues in the libraries are shown as spheres on the STOTEMP4 structure. “X” denotes a mixture of 30% Tyr, 13% Ser, 10% Gly, 5% Asp, 5% Leu, 5% Pro, 5% Trp and 2.5% each of all pther amino acids except for Cys and Met; “B”, a mixture of Ala, Ser, Thr, Asn, Asp and Tyr; “U”, a mixture of Ser, Thr, Asn and Tyr; “Z”, a mixture of Ala, Glu, Lys and Thr. (c) Binding measurements by yeast surface display of representative therMonobodies for each combination of library and target. The mean fluorescence intensities of yeast cells displaying therMonobodies are plotted as a function of the target concentration. The error indicated are the standard deviations from curve fitting of the 1:1 binding model.
# Abl SH2 [2] = target: T1, Abl SH2; assay: yeast surface display titration, KD column of the drawn table [a]
# [3] = target: T2, maltose-binding protein (MBP) (UniProt P0AEX9 27-396 = MBP); assay: yeast surface display titration, KD column of the drawn table [b]
# Abl SH2 [4] = target: T1, Abl SH2; assay: as above
# [5] = target: T3, yeast small ubiquitin-like modifier (ySUMO) (yeast, UniProt Q12306 1-98 = SUMO, limits assumed); assay: yeast surface display: therMonobody on yeast, soluble target titrated 0-2000 nM, mean fluorescence, fit of the 1:1 binding model
# T3 construct: Target protein of the library selection; Construct not described
# From the text: as §1
# [6] = target: T3, yeast small ubiquitin-like modifier …; assay: yeast surface display titration, KD column of the drawn table [a]
# [7] = target: T3, yeast small ubiquitin-like modifier …; assay: yeast surface display titration, KD column of the drawn table [b]
# [8] = target: T2, maltose-binding protein (MBP); assay: yeast surface display: therMonobody on yeast, soluble target titrated 0-1000 nM, mean fluorescence, fit of the 1:1 binding model
# From the text: as §1
# [9] = target: T2, maltose-binding protein (MBP); assay: yeast surface display titration, KD column of the drawn table [a]
# T3 sequence (Q12306 1-98 limits assumed): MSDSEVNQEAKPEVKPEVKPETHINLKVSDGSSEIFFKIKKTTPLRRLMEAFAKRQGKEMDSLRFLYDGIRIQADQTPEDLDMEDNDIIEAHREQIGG
binder,measurement,setting,value
B1,Kd,Abl SH2 [1],78 nM
same,Kd,Abl SH2 [2],78 nM
B2,Kd,[3],484 nM
B3,Kd,Abl SH2 [4],827 nM
B4,Kd,[5],44 nM
same,Kd,[6],44 nM
B5,Kd,[5],20 nM
same,Kd,[7],20 nM
B6,Kd,[3],33 nM
B7,Kd,[7],95 nM
B8,Kd,[8],12 nM
same,Kd,[9],12 nM
B9,Kd,[7],65 nM
B10,Kd,Abl SH2 [1],13 nM
same,Kd,Abl SH2 [4],13 nM
B11,Kd,[8],9 nM
same,Kd,[3],9 nM
B12,Kd,[9],41 nM
